# Laboratory results from the Human Domainome abundance scans (Beltran et al. 2025).
# ± gives the uncertainty stated by the source.
# B1: Unconventional myosin-Ie, residues 1051 to 1108; numbered along this chain, Q12965 (parent)
# chain: PQVPQCKALYAYDAQDTDELSFNANDIIDIIKEDPSGWWTGRLRGKQGLFPNNYVTKI
# Variants of: B1
# Assay: abundance fitness (aPCA) (normalised: wild type 0, dead -1); higher = more abundant; growth selection in yeast, the domain comes from the species named
# Details: Homo sapiens
row,Variant,abundance fitness
1,PQVPQCKALYAYDAQDTDELSFNANDIINIIKEDPSGWWTGRLRGKQGLFPNNYVTKI,-0.277 ± 0.098
2,PQVPQCKALYAYDAQDTDELSFNANDIIMIIKEDPSGWWTGRLRGKQGLFPNNYVTKI,-0.243 ± 0.076
3,PQVPQCKALYAYDAQDTDELSFNANDIIGIIKEDPSGWWTGRLRGKQGLFPNNYVTKI,-0.478 ± 0.045
4,PQVPQCKALYAYDAQDTDELSFNANDIIVIIKEDPSGWWTGRLRGKQGLFPNNYVTKI,-0.303 ± 0.053
5,PQVPQCKALYAYDAQDTDELSFNANDIIAIIKEDPSGWWTGRLRGKQGLFPNNYVTKI,-0.205 ± 0.043
6,PQVPQCKALYAYDAQDTDELSFNANDIICIIKEDPSGWWTGRLRGKQGLFPNNYVTKI,-0.298 ± 0.086
7,PQVPQCKALYAYDAQDTDELSFWANDIIDIIKEDPSGWWTGRLRGKQGLFPNNYVTKI,-0.38 ± 0.054
8,PQVPQCKALYAYDAQDTDELSFYANDIIDIIKEDPSGWWTGRLRGKQGLFPNNYVTKI,-0.155 ± 0.033
9,PQVPQCKALYAYDAQDTDELSFTANDIIDIIKEDPSGWWTGRLRGKQGLFPNNYVTKI,-0.01 ± 0.03
10,PQVPQCKALYAYDAQDTDELSFNANDILDIIKEDPSGWWTGRLRGKQGLFPNNYVTKI,0.237 ± 0.46
11,PQVPQCKALYAYDAQDTDELSFNANDIVDIIKEDPSGWWTGRLRGKQGLFPNNYVTKI,-0.472 ± 0.45
12,PQVPQCKALYAYDAQDTDELSFNANDITDIIKEDPSGWWTGRLRGKQGLFPNNYVTKI,-0.386 ± 0.29
13,PQVPQCKALYAYDAQDTDELSFNANCIIDIIKEDPSGWWTGRLRGKQGLFPNNYVTKI,-0.957 ± 0.28
14,PQVPQCKALYAYDAQDTDELSFNANNIIDIIKEDPSGWWTGRLRGKQGLFPNNYVTKI,-0.676 ± 0.2
15,PQVPQCKALYAYDAQDTDELSFNANSIIDIIKEDPSGWWTGRLRGKQGLFPNNYVTKI,-0.522 ± 0.065
16,PQVPQCKALYAYDAQDTDELSFNANQIIDIIKEDPSGWWTGRLRGKQGLFPNNYVTKI,-0.263 ± 0.11
17,PQVPQCKALYAYDAQDTDELSFNANKIIDIIKEDPSGWWTGRLRGKQGLFPNNYVTKI,-1.07 ± 0.3
18,PQVPQCKALYAYDAQDTDELSFNANYIIDIIKEDPSGWWTGRLRGKQGLFPNNYVTKI,-0.776 ± 0.19
19,PQVPQCKALYAYDAQDTDELSFNANGIIDIIKEDPSGWWTGRLRGKQGLFPNNYVTKI,-0.986 ± 0.094
20,PQVPQCKALYAYDAQDTDELSFNANFIIDIIKEDPSGWWTGRLRGKQGLFPNNYVTKI,-0.726 ± 0.27
21,PQVPQCKALYAYDAQDTDELSFNANMIIDIIKEDPSGWWTGRLRGKQGLFPNNYVTKI,-0.86 ± 0.12
22,PQVPQCKALYAYDAQDTDELSFNANPIIDIIKEDPSGWWTGRLRGKQGLFPNNYVTKI,-0.981 ± 0.42
23,PQVPQCKALYAYDAQDTDELSFNANVIIDIIKEDPSGWWTGRLRGKQGLFPNNYVTKI,-0.855 ± 0.12

row,Variant,abundance fitness
1,PQVPQCKALYAYDAQDTDELSFNANEIIDIIKEDPSGWWTGRLRGKQGLFPNNYVTKI,-0.015 ± 0.046
2,PQVPQCKALYAYDAQDTDELSFNANRIIDIIKEDPSGWWTGRLRGKQGLFPNNYVTKI,-0.948 ± 0.089
3,PQVPQCKALYAYDAQDTDELSFNANWIIDIIKEDPSGWWTGRLRGKQGLFPNNYVTKI,-0.987 ± 0.2
4,PQVPQCKALYAYDAQDTDELSFNANHIIDIIKEDPSGWWTGRLRGKQGLFPNNYVTKI,-0.94 ± 0.42
5,PQVPQCKALYAYDAQDTDELSFNANDFIDIIKEDPSGWWTGRLRGKQGLFPNNYVTKI,-0.274 ± 0.099
6,PQVPQCKALYAYDAQDTDELSFNANDRIDIIKEDPSGWWTGRLRGKQGLFPNNYVTKI,-0.374 ± 0.049
7,PQVPQCKALYAYDAQDTDELSFNANDYIDIIKEDPSGWWTGRLRGKQGLFPNNYVTKI,-0.19 ± 0.042
8,PQVPQCKALYAYDAQDTDELSFNANDHIDIIKEDPSGWWTGRLRGKQGLFPNNYVTKI,-0.306 ± 0.069
9,PQVPQCKALYAYDAQDTDELSFNANDKIDIIKEDPSGWWTGRLRGKQGLFPNNYVTKI,-0.228 ± 0.042
10,PQVPQCKALYAYDAQDTDELSFNANDSIDIIKEDPSGWWTGRLRGKQGLFPNNYVTKI,-0.655 ± 0.087
11,PQVPQCKALYAYDAQDTDELSFNANDWIDIIKEDPSGWWTGRLRGKQGLFPNNYVTKI,-0.466 ± 0.048
12,PQVPQCKALYAYDAQDTDELSFNANDGIDIIKEDPSGWWTGRLRGKQGLFPNNYVTKI,-0.927 ± 0.062
13,PQVPQCKALYAYDAQDTDELSFNANDLIDIIKEDPSGWWTGRLRGKQGLFPNNYVTKI,-0.15 ± 0.047
14,PQVPQCKALYAYDAQDTDELSFNANDVIDIIKEDPSGWWTGRLRGKQGLFPNNYVTKI,-0.085 ± 0.049
15,PQVPQCKALYAYDAQDTDELSFNANDNIDIIKEDPSGWWTGRLRGKQGLFPNNYVTKI,-0.233 ± 0.093
16,PQVPQCKALYAYDAQDTDELSFNANDAIDIIKEDPSGWWTGRLRGKQGLFPNNYVTKI,-0.47 ± 0.057
17,PQVPQCKALYAYDAQDTDELSFNANDEIDIIKEDPSGWWTGRLRGKQGLFPNNYVTKI,-0.432 ± 0.058
18,PQVPQCKALYAYDAQDTDELSFNANDQIDIIKEDPSGWWTGRLRGKQGLFPNNYVTKI,-0.327 ± 0.077
19,PQVPQCKALYAYDAQDTDELSFNANDMIDIIKEDPSGWWTGRLRGKQGLFPNNYVTKI,-0.156 ± 0.065
20,PQVPQCKALYAYDAQDTDELSFNANDDIDIIKEDPSGWWTGRLRGKQGLFPNNYVTKI,-0.618 ± 0.038
21,PQVPQCKALYAYDAQDTDELSFNANDPIDIIKEDPSGWWTGRLRGKQGLFPNNYVTKI,-0.681 ± 0.24
22,PQVPQCKALYAYDAQDTDELSFNANDTIDIIKEDPSGWWTGRLRGKQGLFPNNYVTKI,-0.26 ± 0.074
23,PQVPQCKALYAYDAQDTDELSFNANDCIDIIKEDPSGWWTGRLRGKQGLFPNNYVTKI,-0.261 ± 0.059
